# In patent US20230406950A1 (LYVGEN BIOPHARMA, published 2023):
# T1: human GITR expressed on cells (human, UniProt Q9Y5U5 26-241)
# T1 construct: whole, on cells; also called TNFRSF18; CD357
# T1 sequence (looked up): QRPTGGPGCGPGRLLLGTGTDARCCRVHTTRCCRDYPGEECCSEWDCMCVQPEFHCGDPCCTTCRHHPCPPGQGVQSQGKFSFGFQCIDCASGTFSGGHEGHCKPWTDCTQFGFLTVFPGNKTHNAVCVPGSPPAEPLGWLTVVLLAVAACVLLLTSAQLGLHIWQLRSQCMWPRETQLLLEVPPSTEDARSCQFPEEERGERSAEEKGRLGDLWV
# B1: TM392 (antibody, human IgG4 S228P, kappa, V domains shown)
# VH: QVQLKESGPGLVQPSETLSLTCNVSGFSLTSYNVHWVRQPPGKGLEWLGVIWSGVRTDYNSVLKSRLSIRWDSSKNQVFLKMNSLQSEDTATYYCARGTYDANYHDVMDAWGQGASVTVSS
# VL: DTVLTQSPALAVSPGERVTISCRASKSVRTGMHWYQQKPGQQPKLLVYGASNLESGVPARFSGSGSGTDFTLTIDPVEADDIATYFCHQSWNHFTFGSGTKLEIKR
# notes: Chimeric anti-GITR antibody; also called chimeric antibody TM392 (LYV392 with human constant regions)
# B2: TM396 (antibody, human IgG4 S228P, kappa, V domains shown)
# VH: QVQLKESGPGLVQPSETLSLTCTVSGFSLTSYNVHWVRQPPGKGLEWLGVIWSGVRTDYNSVLKPRLSISRDSSKNKVFLNMNSLQSEDTATYYCARGTYDDNYHDVMDAWGQGASVTVSS
# VL: DTVLTQSPALAVSPGERVTISCRASKSVRTGMHWYQQKPGQQPKLLIYGASNLESGVPVRFSGSGSGTDFTLTIDPVEADDTATYFCQQSWNHFTFGSGTKLEIKR
# notes: Chimeric anti-GITR antibody from LYV396; also called chimeric antibody TM396 (IgG4)
# B3: TM676 (antibody, human IgG1, kappa, V domains shown)
# VH: QVQLQESGPGLVKPSETLSLTCTVSGFSLTSYNVHWIRQPPGKGLEWIGVIWSGVRTDYNSVLKSRVTISVDTSKNQFSLKLSSVTAADTAVYYCARGTYDANYHDVMDAWGQGTMVTVSS
# VL: EIVLTQSPATLSLSPGERATLSCRASKSVRTGMHWYQQKPGQAPRLLIYGASNLESGIPARFSGSGSGTDFTLTISSLEPEDFAVYYCHQSWNHFTFGQGTKLEIKR
# notes: Humanized anti-GITR antibody; also called humanized LYV392 antibody (VH-1/IgG1 mut, VL-1/kappa)
# B4: Ly738 (bispecific antibody, human IgG1, kappa)
# heavy: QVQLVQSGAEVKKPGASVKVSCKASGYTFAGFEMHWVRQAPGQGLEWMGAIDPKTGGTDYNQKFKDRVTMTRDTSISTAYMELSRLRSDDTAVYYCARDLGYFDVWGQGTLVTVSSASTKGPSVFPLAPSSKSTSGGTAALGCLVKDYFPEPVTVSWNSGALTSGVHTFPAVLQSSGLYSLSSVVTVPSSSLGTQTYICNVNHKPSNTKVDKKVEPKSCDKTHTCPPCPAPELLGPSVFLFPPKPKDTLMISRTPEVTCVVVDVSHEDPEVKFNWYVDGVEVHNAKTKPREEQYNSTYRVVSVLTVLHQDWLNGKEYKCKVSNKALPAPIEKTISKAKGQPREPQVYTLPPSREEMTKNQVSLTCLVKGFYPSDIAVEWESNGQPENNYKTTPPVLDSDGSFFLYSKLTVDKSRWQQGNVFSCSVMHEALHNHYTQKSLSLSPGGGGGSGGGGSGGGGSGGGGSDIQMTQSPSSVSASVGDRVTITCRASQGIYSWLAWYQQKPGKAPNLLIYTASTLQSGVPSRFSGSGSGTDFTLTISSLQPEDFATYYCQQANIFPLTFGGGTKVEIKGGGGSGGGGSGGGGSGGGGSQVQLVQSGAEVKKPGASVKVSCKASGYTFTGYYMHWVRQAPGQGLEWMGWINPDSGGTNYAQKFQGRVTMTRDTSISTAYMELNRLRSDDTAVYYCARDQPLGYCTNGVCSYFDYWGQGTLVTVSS
# light: DIQMTQSPSSLSASVGDRVTITCRASQDIRSNLNWYQQKPGGAVKLLIYYTSRLHSGVPSRFSGSGSGTDYTLTISSLQPEDFATYFCQQSEKLPRTFGGGTKVEIRRTVAAPSVFIFPPSDEQLKSGTASVVCLLNNFYPREAKVQWKVDNALQSGNSQESVTEQDSKDSTYSLSSTLTLSKADYEKHKVYACEVTHQGLSSPVTKSFNRGEC
# notes: Anti-CD40/CD137: Ly1630 heavy chain fused to Ly253 scFv (VL-VH); Ly1630 light chain
# B5: Ly739 (bispecific antibody, human IgG1, kappa)
# heavy: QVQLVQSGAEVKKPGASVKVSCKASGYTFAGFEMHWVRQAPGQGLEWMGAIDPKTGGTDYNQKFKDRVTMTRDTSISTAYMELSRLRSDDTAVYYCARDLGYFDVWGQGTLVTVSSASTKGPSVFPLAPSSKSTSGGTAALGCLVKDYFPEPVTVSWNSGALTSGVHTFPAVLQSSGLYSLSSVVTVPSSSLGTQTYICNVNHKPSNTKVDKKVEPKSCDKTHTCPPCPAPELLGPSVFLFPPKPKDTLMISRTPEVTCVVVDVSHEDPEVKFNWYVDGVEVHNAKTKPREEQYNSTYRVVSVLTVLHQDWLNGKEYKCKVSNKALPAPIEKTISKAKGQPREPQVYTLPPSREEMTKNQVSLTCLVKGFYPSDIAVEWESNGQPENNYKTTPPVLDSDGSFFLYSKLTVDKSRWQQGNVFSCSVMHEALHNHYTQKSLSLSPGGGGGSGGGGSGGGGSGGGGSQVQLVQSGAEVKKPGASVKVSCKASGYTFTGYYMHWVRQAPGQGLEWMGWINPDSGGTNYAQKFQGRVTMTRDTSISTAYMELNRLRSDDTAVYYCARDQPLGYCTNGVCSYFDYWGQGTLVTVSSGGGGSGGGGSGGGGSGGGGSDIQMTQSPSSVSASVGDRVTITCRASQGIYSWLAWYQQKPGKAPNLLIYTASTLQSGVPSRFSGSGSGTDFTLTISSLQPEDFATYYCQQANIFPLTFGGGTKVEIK
# light: DIQMTQSPSSLSASVGDRVTITCRASQDIRSNLNWYQQKPGGAVKLLIYYTSRLHSGVPSRFSGSGSGTDYTLTISSLQPEDFATYFCQQSEKLPRTFGGGTKVEIRRTVAAPSVFIFPPSDEQLKSGTASVVCLLNNFYPREAKVQWKVDNALQSGNSQESVTEQDSKDSTYSLSSTLTLSKADYEKHKVYACEVTHQGLSSPVTKSFNRGEC
# notes: Anti-CD40/CD137: Ly1630 heavy chain fused to Ly253 scFv (VH-VL); Ly1630 light chain
# B6: Ly348 (bispecific antibody, human IgG1, kappa)
# heavy: QVQLVQSGAEVKKPGASVKVSCKASGYTFTDFWMSWVRQAPGQGLEWMGQIYPNTGTTHSNEKFKGRVTMTRDTSTSTVYMELSSLRSEDTAVYYCARSYHISTTPNWFAYWGQGTLVTVSSASTKGPSVFPLAPSSKSTSGGTAALGCLVKDYFPEPVTVSWNSGALTSGVHTFPAVLQSSGLYSLSSVVTVPSSSLGTQTYICNVNHKPSNTKVDKKVEPKSCDKTHTCPPCPAPELLGPSVFLFPPKPKDTLMISRTPEVTCVVVDVSHEDPEVKFNWYVDGVEVHNAKTKPREEQYNSTYRVVSVLTVLHQDWLNGKEYKCKVSNKALPAPIEKTISKAKGQPREPQVYTLPPSREEMTKNQVSLTCLVKGFYPSDIAVEWESNGQPENNYKTTPPVLDSDGSFFLYSKLTVDKSRWQQGNVFSCSVMHEALHNHYTQKSLSLSPG
# light: DIQMTQSPSSLSASVGDRVTITCKASQNVYKKLEWYQQKPGKVPKVLIYHTNILQTGVPSRFSGSGSGTDYTLTISSLQPEDVATYYCYQWNSGPTFGGGTKVEIKRTVAAPSVFIFPPSDEQLKSGTASVVCLLNNFYPREAKVQWKVDNALQSGNSQESVTEQDSKDSTYSLSSTLTLSKADYEKHKVYACEVTHQGLSSPVTKSFNRGECGGGGSGGGGSGGGGSGGGGSDIQMTQSPSSLSASVGDRVTITCRASQDIRSNLNWYQQKPGGAVKLLIYYTSRLHSGVPSRFSGSGSGTDYTLTISSLQPEDFATYFCQQSEKLPRTFGGGTKVEIRGGGGSGGGGSGGGGSGGGGSQVQLVQSGAEVKKPGASVKVSCKASGYTFAGFEMHWVRQAPGQGLEWMGAIDPKTGGTDYNQKFKDRVTMTRDTSISTAYMELSRLRSDDTAVYYCARDLGYFDVWGQGTLVTVSS
# notes: Anti-PD-L1/CD137: Ly076 heavy chain; Ly076 light chain fused to Ly1630 scFv (VL-VH)
# B7: Ly299 (bispecific antibody, human IgG1, kappa)
# heavy: QVQLVQSGAEVKKPGASVKVSCKASGYTFTDFWMSWVRQAPGQGLEWMGQIYPNTGTTHSNEKFKGRVTMTRDTSTSTVYMELSSLRSEDTAVYYCARSYHISTTPNWFAYWGQGTLVTVSSASTKGPSVFPLAPSSKSTSGGTAALGCLVKDYFPEPVTVSWNSGALTSGVHTFPAVLQSSGLYSLSSVVTVPSSSLGTQTYICNVNHKPSNTKVDKKVEPKSCDKTHTCPPCPAPELLGPSVFLFPPKPKDTLMISRTPEVTCVVVDVSHEDPEVKFNWYVDGVEVHNAKTKPREEQYNSTYRVVSVLTVLHQDWLNGKEYKCKVSNKALPAPIEKTISKAKGQPREPQVYTLPPSREEMTKNQVSLTCLVKGFYPSDIAVEWESNGQPENNYKTTPPVLDSDGSFFLYSKLTVDKSRWQQGNVFSCSVMHEALHNHYTQKSLSLSPGGGGGSGGGGSGGGGSGGGGSDIQMTQSPSSLSASVGDRVTITCRASQDIRSNLNWYQQKPGGAVKLLIYYTSRLHSGVPSRFSGSGSGTDYTLTISSLQPEDFATYFCQQSEKLPRTFGGGTKVEIRGGGGSGGGGSGGGGSGGGGSQVQLVQSGAEVKKPGASVKVSCKASGYTFAGFEMHWVRQAPGQGLEWMGAIDPKTGGTDYNQKFKDRVTMTRDTSISTAYMELSRLRSDDTAVYYCARDLGYFDVWGQGTLVTVSS
# light: DIQMTQSPSSLSASVGDRVTITCKASQNVYKKLEWYQQKPGKVPKVLIYHTNILQTGVPSRFSGSGSGTDYTLTISSLQPEDVATYYCYQWNSGPTFGGGTKVEIKRTVAAPSVFIFPPSDEQLKSGTASVVCLLNNFYPREAKVQWKVDNALQSGNSQESVTEQDSKDSTYSLSSTLTLSKADYEKHKVYACEVTHQGLSSPVTKSFNRGEC
# notes: Anti-PD-L1/CD137: Ly076 heavy chain fused to Ly1630 scFv (VL-VH); Ly076 light chain
# Key:
# [1] = target: T1, human GITR expressed on cells; assay: flow cytometry (FACS), MFI, CHO cells expressing human GITR
# Procedure: FACS analysis was performed to evaluate the binding properties of exemplary anti-GITR humanized antibodies. Briefly, CHO cells over-expressing human GITR were harvested using trypsin-EDTA partial digestion followed by centrifugation at 1000 g for 3 minutes. The cells were re-suspended in cold PBS-BSA (2%) at 2×10⁶/mL and aliquoted to 100 μL/tube. The anti-GITR humanized antibodies were diluted in PBS-BSA (final concentrations were 0.01, 0.1, 1 and 10 μg/mL) and 50 μL of each was added to the CHO-GITR cells. The cell solutions were mixed and incubated at 4° C. in the dark for 2 hours. The cells were then washed with PBS-BSA twice. Secondary antibody conjugates (goat F(ab′)2 anti-human IgG—Fc (PE), pre-adsorbed, Abcam #ab98596) at 1/500 dilution and 100 μL/well was added and the cells were mixed and incubated 4° C. in dark for 1 hour. The cells were then washed twice with PBS-BSA, followed by fixation in 2% PFA/PBS, and were then subjected to FACS analysis.
# [0270] (b) Agonistic Activity for GITR
# [2] = target: T2, human CD137 expressed on cells (human, UniProt Q07011 24-255); assay: FACS on CHO cells expressing human CD137 (MFI)
# T2 construct: whole, on cells; also called 4-1BB; TNFRSF9
# T2 sequence (Q07011 24-255): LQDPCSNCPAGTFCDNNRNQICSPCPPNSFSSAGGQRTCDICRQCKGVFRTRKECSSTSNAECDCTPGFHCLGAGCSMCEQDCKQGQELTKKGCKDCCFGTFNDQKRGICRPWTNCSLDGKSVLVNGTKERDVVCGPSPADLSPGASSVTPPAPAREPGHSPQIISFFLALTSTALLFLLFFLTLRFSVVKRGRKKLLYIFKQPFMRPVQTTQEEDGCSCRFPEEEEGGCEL
# Procedure: (§1) Anti-CD40/CD137 bi-specific antibodies were analyzed by FACS for their binding properties to human CD40 and/or human CD137 expressed on CHO cells. Briefly, cultured cells were harvested, counted and cell viability was evaluated using the Trypan Blue exclusion method. Viable cells were then adjusted to 2×10⁶ cells per mL in PBS containing 2% BSA. 100 μL of this cell suspension were further aliquoted per well into a V-bottom 96-well plate. […] After incubation for 2 hours at 4° C., cells were centrifuged (3 min, 1000×g), washed with 250 μL/well BSA-containing FACS Stain Buffer, resuspended and incubated for an additional 1 hour at 4° C. with 100 μL/well fluorochrome-conjugated anti-IgG antibody for detection of the bisepecific antibody. Cells were then washed with 250 μL/well BSA-containing FACS Stain Buffer, resuspended in 100 μL/well FACS Stain Buffer, acquired and analyzed using a FACS machine. Binding of the bispecific antibodies to human CD40 or human CD137 expressing CHO cells were evaluated and the mean fluorescence intensity is plotted in histograms or dot plots.
# [3] = target: T3, human CD40 expressed on CHO cells (human, UniProt P25942 21-277); assay: FACS on CHO cells expressing human CD40 (MFI)
# T3 construct: whole, on cells
# T3 sequence (P25942 21-277): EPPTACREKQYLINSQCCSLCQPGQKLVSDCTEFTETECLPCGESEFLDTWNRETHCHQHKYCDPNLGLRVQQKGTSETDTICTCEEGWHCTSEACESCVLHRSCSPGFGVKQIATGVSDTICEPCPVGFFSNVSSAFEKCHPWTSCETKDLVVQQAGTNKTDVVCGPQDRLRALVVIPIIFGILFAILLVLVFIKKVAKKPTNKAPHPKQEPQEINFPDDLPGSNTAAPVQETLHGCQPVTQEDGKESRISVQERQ
# [4] = target: T4, human PD-L1 expressed on cells (human, UniProt Q9NZQ7 19-290); assay: flow cytometry (FACS), MFI, CHO cells expressing human PD-L1
# T4 construct: whole, on cells; also called human PD-L1 expressed on CHO cells; Raji-PD-L1 cells
# T4 sequence (Q9NZQ7 19-290): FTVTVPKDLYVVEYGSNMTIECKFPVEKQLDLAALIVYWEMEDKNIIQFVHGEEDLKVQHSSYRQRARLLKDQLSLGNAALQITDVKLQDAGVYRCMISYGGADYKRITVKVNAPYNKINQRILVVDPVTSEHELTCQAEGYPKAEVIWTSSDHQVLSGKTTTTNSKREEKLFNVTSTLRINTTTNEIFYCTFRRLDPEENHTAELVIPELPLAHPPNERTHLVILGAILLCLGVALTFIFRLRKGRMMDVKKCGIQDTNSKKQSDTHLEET
# Procedure: as §1, with “Exemplary anti-PD-1/CD137” for “Anti-CD40/CD137”, “PD-1” for “CD40”, “1000× g),” for “1000×g),”
# Exemplary anti-PD-L1/CD137 bi-specific antibodies were analyzed by FACS for their binding properties to human PD-L1 or human CD137 expressed on CHO cells, following the procedures disclosed in Examples 1 above.
# [5] = target: T5, Human PD-L1 ECD fragment (His tag) (human, UniProt Q9NZQ7 19-238); assay: bridging ELISA: human CD137 ECD (mouse IgG2a Fc tag) coated, antibody titrated, then human PD-L1 ECD (His tag), HRP anti-His detection; A450-A620
# T5 construct: extracellular domain; also called recombinant human PD-L1; not shown: His tag
# T5 sequence (Q9NZQ7 19-238): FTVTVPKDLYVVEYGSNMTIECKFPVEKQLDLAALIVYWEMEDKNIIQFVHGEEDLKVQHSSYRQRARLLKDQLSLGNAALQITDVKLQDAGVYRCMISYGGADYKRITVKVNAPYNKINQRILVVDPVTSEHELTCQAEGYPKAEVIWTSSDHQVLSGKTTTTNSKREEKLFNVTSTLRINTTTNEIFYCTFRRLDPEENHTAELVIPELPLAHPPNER
# Procedure: (§2) Exemplary anti-PD-L1/CD137 bi-specific antibodies were analyzed by ELISA for their simultaneous binding to recombinant human PD-L1 and human CD137. Briefly, the ECD portion of human CD137 protein (mouse IgG2a Fc tag) was diluted and coated onto an ELISA plate with a volume of 100 μL/well by incubation at 4° C. overnight. The next day, the plate was blocked with PBST-BSA buffer, then serially diluted samples of anti-PD-L1/CD137 bi-specific antibodies were pipetted into appropriate wells at 50 μL/well, and the plate was incubated for 1 h followed by Washing. Human PD-L1 ECD fragment (His tag) was added into the plate at 50 μL/well. After 1-hour incubation at room temperature, HRP-conjugated anti-His tag antibody was added into the plate at 100 μL/well and […]. The plate was incubated for 1 hour at room temperature followed by washing. TMB substrate solution was added at 100 μL/well and the color development was stopped by adding 100 uL/well Stop Solution (2N H₂SO₄). Absorbance at 450 nm and 620 nm was read by Tecan F200 Pro plate reader. GraphPad 7.0, “[Agonist] vs. response—Variable slope (four parameters)” was used to plot the binding data and calculate binding EC50 values.
# [6] = target: T6, ECD portion of human CD137 protein (mouse IgG2a Fc tag) (human, UniProt Q07011 24-186); assay: as above
# T6 construct: extracellular domain; also called recombinant human CD137; not shown: mouse IgG2a Fc tag
# Procedure: as §2
binder,measurement,setting,value
B1,binding result,[1],binds
B2,binding result,[1],binds
B3,binding result,[1],binds
B4,EC50 (read off the curve),[2],~0.05 µg/mL
same,EC50 (read off the curve),[3],~0.08 µg/mL
B5,EC50 (read off the curve),[2],~0.05 µg/mL
same,binding result,[3],binds
B6,binding result,[4],binds
same,binding result,[5],binds
same,EC50 (read off the curve),[6],~0.1 µg/mL
B7,binding result,[4],binds
same,binding result,[5],binds
same,EC50 (read off the curve),[6],~0.1 µg/mL
